Test results published in paper PMC11527256.

Key:
K48-linked di-UB [1] = biological target: K48-linked di-UB (UniProt P0CG48); experiment: ITC
K48-linked tetra-UB [2] = biological target: K48-linked tetra-UB (UniProt P0CG48); experiment: ITC
K48-linked tri-UB [3] = biological target: K48-linked tri-UB (UniProt P0CG48); experiment: ITC
K48-linked di-UB [4] = biological target: K48-linked di-UB (UniProt P0CG48); experiment: SEC-SAXS; complexes assembled at 170 μM, 1:1, in 20 mM HEPES pH 8.0, 150 mM NaCl, 1 mM TCEP; Superdex 75 10/300 increase coupled to SAXS (ESRF BM29)
K48-linked tetra-UB [5] = biological target: K48-linked tetra-UB (UniProt P0CG48); experiment: as above
K48-linked tri-UB [6] = biological target: K48-linked tri-UB (UniProt P0CG48); experiment: as above
K63-linked di-UB = K63-linked di-UB (UniProt P0CG48); experiment: ITC
K48-linked penta-UB = K48-linked penta-UB (UniProt P0CG48); experiment: ITC
K63-linked tri-UB = K63-linked tri-UB (UniProt P0CG48); experiment: ITC
K63-linked tetra-UB = K63-linked tetra-UB (UniProt P0CG48); experiment: ITC
K63-linked penta-UB = K63-linked penta-UB (UniProt P0CG48); experiment: ITC

**Q.** With “Cdu1^CA M149A/M153A variant (from UniProt B0B9A0 130-401) (enzyme)” as the substance, how does the Kd (K48-linked di-UB [1]) read?
**A.** Its Kd is 2.91 µM.

**Q.** And the dH (K48-linked di-UB [1])?
**A.** The dH was 1.89 kcal/mol.

**Q.** What about the stoichiometry N (K48-linked di-UB [1]) of the same substance?
**A.** Its stoichiometry N is 0.98.

**Q.** What about the Kd (K48-linked tetra-UB [2]) of the same substance?
**A.** Its Kd is 1.24 µM.

**Q.** What about the dH (K48-linked tetra-UB [2]) of the same substance?
**A.** The dH was 10.9 kcal/mol.

**Q.** And the stoichiometry N (K48-linked tetra-UB [2])?
**A.** Its stoichiometry N is 0.95.

**Q.** What about the Kd (K48-linked tri-UB [3]) of the same substance?
**A.** The Kd was 1.78 µM.

**Q.** And the dH (K48-linked tri-UB [3])?
**A.** The dH was 6.4 kcal/mol.

**Q.** What about the stoichiometry N (K48-linked tri-UB [3]) of the same substance?
**A.** Its stoichiometry N is 1.01.

**Q.** Which stoichiometry N (K48-linked di-UB [4]) does the source give for “Cdu1^CA, catalytically inactive Cdu1(130-401) with C345 mutated to Ala (from UniProt B0B9A0 130-401) (enzyme)” here?
**A.** The stoichiometry N was 1.

**Q.** And the stoichiometry N (K48-linked tetra-UB [5])?
**A.** The stoichiometry N was 1.

**Q.** And the stoichiometry N (K48-linked tri-UB [6])?
**A.** The stoichiometry N was 1.

**Q.** And the Kd (K63-linked di-UB)?
**A.** Its Kd is 2.52 µM.

**Q.** What about the dH (K63-linked di-UB) of the same substance?
**A.** Its dH is 5.99 kcal/mol.

**Q.** And the stoichiometry N (K63-linked di-UB)?
**A.** The stoichiometry N was 0.92.

**Q.** And the Kd (K48-linked penta-UB)?
**A.** Its Kd is 0.28 µM.

**Q.** What about the dH (K48-linked penta-UB) of the same substance?
**A.** The dH was 10 kcal/mol.

**Q.** And the stoichiometry N (K48-linked penta-UB)?
**A.** The stoichiometry N was 0.99.

**Q.** What about the Kd (K48-linked di-UB [1]) of the same substance?
**A.** Its Kd is 2.58 µM.

**Q.** And the dH (K48-linked di-UB [1])?
**A.** Its dH is 3.67 kcal/mol.

**Q.** And the stoichiometry N (K48-linked di-UB [1])?
**A.** Its stoichiometry N is 1.02.

**Q.** What about the Kd (K63-linked tri-UB) of the same substance?
**A.** The Kd was 3.01 µM.

**Q.** And the dH (K63-linked tri-UB)?
**A.** The dH was 7.34 kcal/mol.

**Q.** What about the stoichiometry N (K63-linked tri-UB) of the same substance?
**A.** The stoichiometry N was 1.24.

**Q.** What about the Kd (K63-linked tetra-UB) of the same substance?
**A.** The Kd was 4.47 µM.

**Q.** And the dH (K63-linked tetra-UB)?
**A.** The dH was 9.93 kcal/mol.

**Q.** And the stoichiometry N (K63-linked tetra-UB)?
**A.** Its stoichiometry N is 1.6.

**Q.** What about the Kd (K63-linked penta-UB) of the same substance?
**A.** The Kd was 6.56 µM.

**Q.** What about the dH (K63-linked penta-UB) of the same substance?
**A.** The dH was 10.9 kcal/mol.

**Q.** And the stoichiometry N (K63-linked penta-UB)?
**A.** The stoichiometry N was 2.3.

**Q.** And the Kd (K48-linked tetra-UB [2])?
**A.** The Kd was 0.31 µM.

**Q.** What about the dH (K48-linked tetra-UB [2]) of the same substance?
**A.** The dH was 9.63 kcal/mol.

**Q.** What about the stoichiometry N (K48-linked tetra-UB [2]) of the same substance?
**A.** The stoichiometry N was 0.99.

**Q.** And the Kd (K48-linked tri-UB [3])?
**A.** The Kd was 0.8 µM.

**Q.** And the dH (K48-linked tri-UB [3])?
**A.** The dH was 7.05 kcal/mol.

**Q.** What about the stoichiometry N (K48-linked tri-UB [3]) of the same substance?
**A.** The stoichiometry N was 1.01.

**Q.** For “Cdu1^CA Q384A/A385R variant (from UniProt B0B9A0 130-401) (enzyme)”, which Kd (K48-linked di-UB [1]) is on record?
**A.** Its Kd is 3.44 µM.

**Q.** What about the dH (K48-linked di-UB [1]) of the same substance?
**A.** The dH was 3.89 kcal/mol.

**Q.** What about the stoichiometry N (K48-linked di-UB [1]) of the same substance?
**A.** Its stoichiometry N is 0.96.

**Q.** What about the Kd (K48-linked tetra-UB [2]) of the same substance?
**A.** Its Kd is 1.42 µM.

**Q.** What about the dH (K48-linked tetra-UB [2]) of the same substance?
**A.** The dH was 7.86 kcal/mol.

**Q.** And the stoichiometry N (K48-linked tetra-UB [2])?
**A.** The stoichiometry N was 1.14.

**Q.** What about the Kd (K48-linked tri-UB [3]) of the same substance?
**A.** The Kd was 1.65 µM.

**Q.** And the dH (K48-linked tri-UB [3])?
**A.** The dH was 7.7 kcal/mol.

**Q.** And the stoichiometry N (K48-linked tri-UB [3])?
**A.** The stoichiometry N was 1.04.
